Paper PMC5923319 (Toxins, 2018)

Experiments:
[1] = molecular target: HcA1 (receptor binding domain of BoNT/A1), HA- and His6-tagged, for binding studies (Clostridium botulinum, UniProt A2I2U2 876-1296); assay: pull-down; details: both partners purified
[2] = molecular target: HcA2 (receptor binding domain of BoNT/A2), HA- and His6-tagged, for binding studies (Clostridium botulinum A2 Kyoto-F, UniProt Q45894 874-1296); assay: […]; Hepes buffer (50 mM Hepes pH 7.5, 150 mM NaCl); […]; details: both partners purified

Binder	binding result [1]	binding result [2]
GST-fused recombinant human SV2A-L4 (domain or fragment, UniProt Q7L0J3 468-596, looked up, also called non-glycosylated SV2A) FPDMIRHLQAVDYASRTKVFPGERVEHVTFNFTLENQIHRGGQYFNDKFIGLRLKSVSFEDSLFEECYFEDVTSSNTFFRNCTFINTVFYNTDLFEYKFVNSRLINSTFLHNKEGCPLDVTGTGEGAYM	binds	
GST-fused recombinant human SV2B-L4 (domain or fragment, UniProt Q7L1I2 410-536, looked up, also called non-glycosylated SV2B) WFPDMIRYFQDEEYKSKMKVFFGEHVYGATINFTMENQIHQHGKLVNDKFTRMYFKHVLFEDTFFDECYFEDVTSTDTYFKNCTIESTIFYNTDLYEHKFINCRFINSTFLEQKEGCHMDLEQDNDF	binds	
GST-fused recombinant human SV2C-L4 (domain or fragment, UniProt Q496J9 454-580, looked up, also called non-glycosylated SV2C) FPDVIKPLQSDEYALLTRNVERDKYANFTINFTMENQIHTGMEYDNGRFIGVKFKSVTFKDSVFKSCTFEDVTSVNTYFKNCTFIDTVFDNTDFEPYKFIDSEFKNCSFFHNKTGCQITFDDDYSAY	binds	binds
